Test results taken from patent US20260242497A1 (VIAL HEALTH TECHNOLOGY, published 2026).
Numbering of substitutions follows the chain as printed. Names may count otherwise. “And” between values parts separate entries of the source, which are not always exact repeats. Equal values may be shown once.

B1: AB_TL1A_02_004 with a C-terminal fused assay tag (prokaryotic in vitro translation, BLI of Example 1) (antibody, human IgG1, kappa)
heavy: QVQLVQSGAEVKKPGASVKVSCKASGYDFTYYGISWVRQAPGQGLEWMGWISPYNGNTHYAQKLQGRVTMTTDTSTRTAYMELRSLRSDDTAVYYCARENYYGSGAYRGGMDVWGQGTTVTVSSASTKGPSVFPLAPSSKSTSGGTAALGCLVKDYFPEPVTVSWNSGALTSGVHTFPAVLQSSGLYSLSSVVTVPSSSLGTQTYICNVNHKPSNTKVDKKVEPKSCDKTHTCPPCPAPEAAGAPSVFLFPPKPKDTLMISRTPEVTCVVVDVSHEDPEVKFNWYVDGVEVHNAKTKPREEQYNSTYRVVSVLTVLHQDWLNGKEYKCKVSNKALPAPIEKTISKAKGQPREPQVYTLPPSREEMTKNQVSLTCLVKGFYPSDIAVEWESNGQPENNYKTTPPVLDSDGSFFLYSKLTVDKSRWQQGNVFSCSVMHEALHNHYTQKSLSLSPG
light: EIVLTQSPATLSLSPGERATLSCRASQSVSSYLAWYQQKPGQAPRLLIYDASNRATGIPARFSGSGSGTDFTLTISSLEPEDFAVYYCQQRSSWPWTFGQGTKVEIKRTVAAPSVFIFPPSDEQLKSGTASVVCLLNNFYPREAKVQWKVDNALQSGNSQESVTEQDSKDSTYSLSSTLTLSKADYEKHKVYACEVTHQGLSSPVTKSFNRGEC
B2: AB_TL1A_02_004 (antibody, human IgG1, kappa)
heavy: B1 heavy
light: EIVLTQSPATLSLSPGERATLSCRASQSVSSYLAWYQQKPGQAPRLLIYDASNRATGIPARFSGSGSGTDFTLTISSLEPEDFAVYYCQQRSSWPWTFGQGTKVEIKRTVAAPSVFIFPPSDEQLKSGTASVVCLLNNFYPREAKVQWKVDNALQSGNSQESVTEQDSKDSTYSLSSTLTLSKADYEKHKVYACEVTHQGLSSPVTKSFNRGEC
B3: RVT-3101 (antibody, human IgG1, kappa)
heavy: B1 heavy with P53T, Q62R, K63M
light: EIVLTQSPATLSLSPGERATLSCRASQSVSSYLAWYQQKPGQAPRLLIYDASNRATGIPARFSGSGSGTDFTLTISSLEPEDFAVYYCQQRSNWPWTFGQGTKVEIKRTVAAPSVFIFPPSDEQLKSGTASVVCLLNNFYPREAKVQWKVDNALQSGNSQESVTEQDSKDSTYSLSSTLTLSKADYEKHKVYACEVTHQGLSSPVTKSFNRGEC
notes: Comparator anti-TL1A antibody, no HLE mutation; also called RVT-3101 (Roche); anti-TL1A comparator antibody
B4: AB_TL1A_02_004_HL4 (antibody, human IgG1, kappa)
heavy: B1 heavy with H440K, N441F
light: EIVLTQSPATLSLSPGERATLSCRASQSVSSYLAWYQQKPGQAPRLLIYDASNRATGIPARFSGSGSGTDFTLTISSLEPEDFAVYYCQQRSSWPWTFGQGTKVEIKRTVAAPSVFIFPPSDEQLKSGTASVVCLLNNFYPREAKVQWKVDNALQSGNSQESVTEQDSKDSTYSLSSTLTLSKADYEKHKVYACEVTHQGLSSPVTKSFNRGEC
notes: built from the name and the HLE mutation column
B5: AB_TL1A_02_004_HL9 (antibody, human IgG1, kappa)
heavy: B1 heavy with Q318R, M435L, H440K, N441F
light: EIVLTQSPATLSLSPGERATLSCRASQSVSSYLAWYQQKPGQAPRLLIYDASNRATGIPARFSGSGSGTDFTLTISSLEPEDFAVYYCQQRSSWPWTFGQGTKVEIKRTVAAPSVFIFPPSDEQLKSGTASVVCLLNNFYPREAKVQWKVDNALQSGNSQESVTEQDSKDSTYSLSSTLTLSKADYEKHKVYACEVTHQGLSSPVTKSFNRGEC
notes: as for B4
B6: AB_TL1A_02_004_HL3 (antibody, human IgG1, kappa)
heavy: B1 heavy with Q318R, M435L
light: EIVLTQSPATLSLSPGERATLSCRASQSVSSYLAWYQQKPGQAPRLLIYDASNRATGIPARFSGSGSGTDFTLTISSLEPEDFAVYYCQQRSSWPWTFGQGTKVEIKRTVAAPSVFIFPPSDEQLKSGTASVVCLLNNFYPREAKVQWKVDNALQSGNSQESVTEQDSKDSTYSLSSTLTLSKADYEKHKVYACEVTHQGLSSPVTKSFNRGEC
notes: as for B4
B7: AB_IL15_AI_02_077_HL9 (antibody, human IgG1, kappa, L234A L235A)
heavy: EVQLVESGGGLVQPGGSLRLSCAASEFTFSNYAMSWVRQAPGKGLEWVATISRGGDYHYYPDSVKGRFTISRDNSKNTLYLQMNSLRAEDTAVYYCARRVSMITGGWAHDYWGQGTLVTVSSASTKGPSVFPLAPSSKSTSGGTAALGCLVKDYFPEPVTVSWNSGALTSGVHTFPAVLQSSGLYSLSSVVTVPSSSLGTQTYICNVNHKPSNTKVDKRVEPKSCDKTHTCPPCPAPEAAGGPSVFLFPPKPKDTLMISRTPEVTCVVVDVSHEDPEVKFNWYVDGVEVHNAKTKPREEQYNSTYRVVSVLTVLHRDWLNGKEYKCKVSNKALPAPIEKTISKAKGQPREPQVYTLPPSREEMTKNQVSLTCLVKGFYPSDIAVEWESNGQPENNYKTTPPVLDSDGSFFLYSKLTVDKSRWQQGNVFSCSVLHEALKFHYTQKSLSLSPGK
light: DVVMTQSPLSLPVTLGQPASISCRSSQSIVDITGNTYLEWYQQRPGQSPRLLIYKVFNRFSGVPDRFSGSGSGTDFTLKISRVEAEDVGVYYCFQDSFVPYTFGQGTKLEIKRTVAAPSVFIFPPSDEQLKSGTASVVCLLNNFYPREAKVQWKVDNALQSGNSQESVTEQDSKDSTYSLSSTLTLSKADYEKHKVYACEVTHQGLSSPVTKSFNRGEC
notes: Anti-IL15 antibody with Q311R, M428L, H433K, N434F
B8: AB_IL1b_02_003_HL9 (antibody, human IgG4 S228P, kappa, F234A L235A)
heavy: EVQLVESGGGLVQPGGSLRLSCAASGFTFSDHYMSWIRQAPGKGLEWVSYISSSGSTIYYADSVKGRFTISRDNAKNSLYLQMNSLRAEDTAVYYCAREYDSSGYYYVGVDFWGQGTLVTVSSASTKGPSVFPLAPCSRSTSESTAALGCLVKDYFPEPVTVSWNSGALTSGVHTFPAVLQSSGLYSLSSVVTVPSSSLGTKTYTCNVDHKPSNTKVDKRVESKYGPPCPPCPAPEAAGGPSVFLFPPKPKDTLMISRTPEVTCVVVDVSQEDPEVQFNWYVDGVEVHNAKTKPREEQFNSTYRVVSVLTVLHRDWLNGKEYKCKVSNKGLPSSIEKTISKAKGQPREPQVYTLPPSQEEMTKNQVSLTCLVKGFYPSDIAVEWESNGQPENNYKTTPPVLDSDGSFFLYSRLTVDKSRWQEGNVFSCSVLHEALKFHYTQKSLSLSLG
light: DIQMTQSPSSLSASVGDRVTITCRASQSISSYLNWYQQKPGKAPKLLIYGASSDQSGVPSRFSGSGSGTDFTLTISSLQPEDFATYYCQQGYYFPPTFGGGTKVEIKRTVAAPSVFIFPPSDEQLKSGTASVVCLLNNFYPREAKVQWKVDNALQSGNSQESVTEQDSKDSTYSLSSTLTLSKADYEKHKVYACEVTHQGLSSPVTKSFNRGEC
notes: Anti-IL1β antibody with Q311R, M428L, H433K, N434F
B9: AB_IL13_TSLP_BsAb_ISTF_003 (bispecific antibody)
chain 1: EVQLVQSGAEVKKPGSSVKVSCKASGYTFSNYLIEWVRQAPGQGLEWIGVIDPGVGDTNYNENFKGRATLTADKSTSTAYIELSSLRSEDTAVYYCAREDNPGTAFDYWGQGTTVTVSSASTKGPSVFPLAPSSKSTSGGTAALGCLVKDYFPEPVTVSWNSGALTSGVHTFPAVLQSSGLYSLSSVVTVPSSSLGTQTYICNVNHKPSNTKVDKRVEPKSCDKTHTCPPCPAPEAAGGPSVFLFPPKPKDTLMISRTPEVTCVVVDVSHEDPEVKFNWYVDGVEVHNAKTKPREEQYNSTYRVVSVLTVLHQDWLNGKEYKCKVSNKALPAPIEKTISKAKGQPREPQVYTLPPCREEMTKNQVSLWCLVKGFYPSDIAVEWESNGQPENNYKTTPPVLDSDGSFFLYSKLTVDKSRWQQGNVFSCSVLHEALHSHYTQKSLSLSPGK
chain 2: SIVMTQTPLSLSVTPGQPASISCKASQSVSSDVTWYLQKPGQSPQLLIYYVSEHYTGVPDRFSGSGYGTDFTLKISRVEAEDVGVYYCQQHHRFPLTFGQGTKLEIKRTVAAPSVFIFPPSDEQLKSGTASVVCLLNNFYPREAKVQWKVDNALQSGNSQESVTEQDSKDSTYSLSSTLTLSKADYEKHKVYACEVTHQGLSSPVTKSFNRGEC
chain 3: DIQLTQSPSSLSASVGDRVTITCRASKSVDSYGNSFMHWYQQKPGKAPKLLIYLASNLESGVPSRFSGSGSGTDFTLTISSLQPEDFATYYCQQNNEDPRTFGCGTKVEIKGGGGSGGGGSGGGGSGGGGSEVQLQESGPGLVKPSETLSLTCTVSGFSLNAYSVNWIRQPPGKCLEWLGMIWGDGKIVYNSALKSRLTISKDSSKNQVSLKLSSVTAADTAVYYCAGDGYYPYAMRNWGQGTTVTVSSEPKSSDKTHTCPPCPAPEAAGGPSVFLFPPKPKDTLMISRTPEVTCVVVDVSHEDPEVKFNWYVDGVEVHNAKTKPREEQYNSTYRVVSVLTVLHQDWLNGKEYKCKVSNKALPAPIEKTISKAKGQPREPQVCTLPPSREEMTKNQVSLSCAVKGFYPSDIAVEWESNGQPENNYKTTPPVLDSDGSFFLVSKLTVDKSRWQQGNVFSCSVLHEALHSHYTQKSLSLSPGK
B10: AB_IL13_TSLP_BsAb_ISTF_003_HL9 (bispecific antibody, human IgG1, kappa, L234A L235A)
heavy: B9 chain 1 with Q313R, H435K, S436F
light: B9 chain 2
scFv: B9 chain 3 with Q345R, H467K, S468F
notes: Anti-TSLP Fab arm (HC + LC) and anti-IL13 scFv-Fc arm
B11: AB_TL1A_02_004_HL1 (antibody, human IgG1, kappa)
heavy: B1 heavy with M259Y, S261T, T263E
light: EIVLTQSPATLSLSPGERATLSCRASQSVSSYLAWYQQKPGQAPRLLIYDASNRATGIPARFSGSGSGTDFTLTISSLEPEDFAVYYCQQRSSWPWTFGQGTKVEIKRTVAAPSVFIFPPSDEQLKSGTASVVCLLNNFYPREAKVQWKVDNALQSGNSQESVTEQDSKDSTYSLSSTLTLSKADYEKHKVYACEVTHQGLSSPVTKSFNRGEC
B12: AB_IL13_02_001_HL9 (antibody, human IgG1, kappa, L234A L235A)
heavy: EVQLQESGPGLVKPSETLSLTCTVSGFSLNAYSVNWIRQPPGKGLEWLGMIWGDGKIVYNSALKSRLTISKDSSKNQVSLKLSSVTAADTAVYYCAGDGYYPYFMDNWGQGTTVTVSSASTKGPSVFPLAPSSKSTSGGTAALGCLVKDYFPEPVTVSWNSGALTSGVHTFPAVLQSSGLYSLSSVVTVPSSSLGTQTYICNVNHKPSNTKVDKKVEPKSCDKTHTCPPCPAPEAAGGPSVFLFPPKPKDTLMISRTPEVTCVVVDVSHEDPEVKFNWYVDGVEVHNAKTKPREEQYNSTYRVVSVLTVLHRDWLNGKEYKCKVSNKALPAPIEKTISKAKGQPREPQVYTLPPSRDELTKNQVSLTCLVKGFYPSDIAVEWESNGQPENNYKTTPPVLDSDGSFFLYSKLTVDKSRWQQGNVFSCSVLHEALKFHYTQKSLSLSPG
light: DIQLTQSPSSLSASVGDRVTITCRASKSVDSYGNSFMHWYQQKPGKAPKLLIYLASNLESGVPSRFSGSGSGTDFTLTISSLQPEDFATYYCQQNNEDPRTFGGGTKVEIKRTVAAPSVFIFPPSDEQLKSGTASVVCLLNNFYPREAKVQWKVDNALQSGNSQESVTEQDSKDSTYSLSSTLTLSKADYEKHKVYACEVTHQGLSSPVTKSFNRGEC
B13: AB_IL13_02_004_HL9 (antibody, human IgG1, kappa, L234A L235A)
heavy: B12 heavy with F104A, N107G
light: B12 light

Biological target: T1, TL1A (antigen of Examples 1 and 2, species not stated) (UniProt O95150 57-251, limits assumed)
T1 construct: also called recombinant purified antigen; TNFSF15
T1 sequence (looked up): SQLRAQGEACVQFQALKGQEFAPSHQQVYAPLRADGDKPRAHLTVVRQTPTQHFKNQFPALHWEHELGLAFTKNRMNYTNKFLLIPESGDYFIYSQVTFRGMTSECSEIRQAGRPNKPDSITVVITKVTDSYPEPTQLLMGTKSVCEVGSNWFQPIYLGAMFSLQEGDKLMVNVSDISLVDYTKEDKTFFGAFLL
Experiment: BLI (Gator Bio), tagged antibody on Strep-Tactin XT probes, recombinant purified antigen as analyte, 25 C

Row | Kd | kon | Binder
1 | 5.17 nM and 5 nM | 380000 M⁻¹ s⁻¹ | B1

Biological target: T2, human FcRn (human, UniProt P55899 24-297; P61769 21-119)
T2 construct: also called neonatal Fc receptor
Experiment: SPR, Biacore 8K, CM5 chip, antibody immobilised, human FcRn as analyte, pH 6.0, steady-state affinity fit

Row | Kd | Fold Increase (FI) relative to RVT-3101 | Binder
2 | 2430 nM and 2240 nM | – | B2
3 | 2440 nM and 2450 nM and 2460 nM | 1 fold | B3
4 | 132 nM | 18.5 fold | B4
5 | 36 nM and 43.3 nM | – | B5
6 | 461 nM | 5.3 fold | B6

Biological target: T3, biotinylated recombinant human TL1A (human, UniProt O95150 57-251, limits assumed, biotinylated (sites not given))
T3 sequence: T1 sequence (looked up)
Experiment: competition ELISA, blocks biotinylated human TL1A (3.5 nM) binding to coated DR3/Fc

Row | IC50 | Binder
7 | 0.92 to 1.01 nM | B2

Biological target: T3, biotinylated recombinant human TL1A
Experiment: competition ELISA, blocks biotinylated human TL1A (3.5 nM) binding to coated DcR3/Fc

Row | IC50 | Binder
8 | 1.2 to 1.51 nM | B2

Biological target: T2, human FcRn
Experiment: SPR, Biacore 8K, CM5 chip, antibody immobilised, human FcRn as analyte, pH 6.0

Row | Fold Increase (FI) relative to Rituximab | Kd | Binder
9 | 38.1 fold | 55.9 nM | B7
10 | 50.4 fold | 42.3 nM | B8
11 | 20.7 fold | 103 nM | B9
12 | 48.5 fold | 43.9 nM | B10
13 | – | 2430 nM and 2240 nM | B2
14 | 9.8 fold | 218 nM | B11
15 | 0.9 fold | 2440 nM and 2450 nM and 2460 nM | B3
16 | – | 36 nM and 43.3 nM | B5
17 | 47.5 fold | 44.8 nM | B12
18 | 45.9 fold | 46.4 nM | B13

Biological target: T1, TL1A (antigen of Examples 1 and 2, …)
Experiment: SPR, Biacore 8K, Protein A chip, antibody captured, antigen as analyte (second line)

Row | Kd | Binder
19 | < 0.0469 nM | B2

Biological target: T1, TL1A (antigen of Examples 1 and 2, …)
Experiment: SPR, Biacore 8K, Protein A chip, antibody captured, antigen as analyte

Row | Kd | Binder
20 | < 0.0256 nM | B2
